Columns and labels:
[1] = target: PXT1 BH3-like peptide (human); assay: fluorescence polarisation; direct binding: 10 nM FAM-labeled peptide, receptor serially diluted; 25°C; 20 mM NaPO4, 50 mM NaCl, 1 mM EDTA, 0.001% Triton X, pH 7.8; single-site binding model
[2] = target: Bcl-2, P10415; assay: peptide SPOT array, c-Myc-tagged receptor at 1 uM or 100 nM, anti-c-Myc-Cy3
Target sequence in this assay (P10415 1-217): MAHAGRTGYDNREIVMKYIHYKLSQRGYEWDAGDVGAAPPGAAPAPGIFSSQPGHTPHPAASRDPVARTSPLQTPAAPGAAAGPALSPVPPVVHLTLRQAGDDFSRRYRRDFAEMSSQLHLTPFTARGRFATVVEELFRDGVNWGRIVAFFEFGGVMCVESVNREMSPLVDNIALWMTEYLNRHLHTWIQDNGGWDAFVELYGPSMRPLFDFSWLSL

[3] = target: T1, Bcl-w, Q92843; assay: as above
T1 chain: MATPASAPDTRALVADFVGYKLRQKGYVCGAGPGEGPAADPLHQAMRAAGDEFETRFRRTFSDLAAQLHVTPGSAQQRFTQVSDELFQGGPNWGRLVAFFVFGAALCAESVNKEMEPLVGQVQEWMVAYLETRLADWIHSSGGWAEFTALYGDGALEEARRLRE

[4] = target: Bcl-xL, Q07817; assay: as above
[5] = target: T2, Bfl-1, Q16548; assay: as above
T2 chain: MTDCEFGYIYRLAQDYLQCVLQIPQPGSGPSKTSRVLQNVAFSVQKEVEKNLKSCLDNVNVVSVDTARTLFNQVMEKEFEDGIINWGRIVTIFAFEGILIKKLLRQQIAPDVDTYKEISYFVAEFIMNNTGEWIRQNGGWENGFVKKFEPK

[6] = target: T3, Mcl-1, Q07820; assay: as above
T3 chain: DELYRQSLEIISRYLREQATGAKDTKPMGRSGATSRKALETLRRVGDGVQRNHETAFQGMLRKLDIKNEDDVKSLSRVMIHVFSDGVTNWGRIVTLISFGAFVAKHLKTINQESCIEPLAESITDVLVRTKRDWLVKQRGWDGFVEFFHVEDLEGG

[7] = target: T4, Bcl-2, P10415; assay: fluorescence polarisation, direct titration of receptor into 10 nM labelled peptide
T4 chain: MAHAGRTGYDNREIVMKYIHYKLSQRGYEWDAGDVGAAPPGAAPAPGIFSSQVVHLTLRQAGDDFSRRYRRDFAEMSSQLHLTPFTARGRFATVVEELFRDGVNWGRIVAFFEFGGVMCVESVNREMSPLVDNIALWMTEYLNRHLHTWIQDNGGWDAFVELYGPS

[8] = target: T1, Bcl-w, Q92843; assay: as above
[9] = target: Bcl-xL, Q07817; assay: as above
[10] = target: T2, Bfl-1, Q16548; assay: as above
[11] = target: T3, Mcl-1, Q07820; assay: as above

Bcl-xL, Q07817, sequence (Q07817 1-209): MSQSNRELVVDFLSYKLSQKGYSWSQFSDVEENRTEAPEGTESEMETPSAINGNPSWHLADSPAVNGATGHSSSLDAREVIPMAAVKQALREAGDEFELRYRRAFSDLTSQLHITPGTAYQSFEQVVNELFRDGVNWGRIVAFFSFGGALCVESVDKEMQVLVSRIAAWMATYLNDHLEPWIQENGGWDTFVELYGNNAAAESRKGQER

Binder | Kd [1] [nM] | SPOT signal as a fraction of Bim BH3's signal on the same receptor and array [2] | SPOT signal as a fraction of Bim BH3's signal on the same receptor and array [3] | SPOT signal as a fraction of Bim BH3's signal on the same receptor and array [4] | SPOT signal as a fraction of Bim BH3's signal on the same receptor and array [5] | SPOT signal as a fraction of Bim BH3's signal on the same receptor and array [6] | Kd [7] [nM] | Kd [8] [nM] | Kd [9] [nM] | Kd [10] [µM] | Kd [11] [nM]
Bcl-w (natural protein) MATPASAPDTRALVADFVGYKLRQKGYVCGAGPGEGPAADPLHQAMRAAGDEFETRFRRTFSDLAAQLHVTPGSAQQRFTQVSDELFQGGPNWGRLVAFFVFGAALCAESVNKEMEPLVGQVQEWMVAYLETQLADWIHSSGGWAEFTALYGDGALEEARRLREGNWASVRTVLTGAVALGALVTVGAFFASK | < 30 | – | – | – | – | – | – | – | – | – | –
Bfl-1 (natural protein) MTDCEFGYIYRLAQDYLQCVLQIPQPGSGPSKTSRVLQNVAFSVQKEVEKNLKSCLDNVNVVSVDTARTLFNQVMEKEFEDGIINWGRIVTIFAFEGILIKKLLRQQIAPDVDTYKEISYFVAEFIMNNTGEWIRQNGGWENGFVKKFEPKSGWMTFLEVTGKICEMLSLLKQYC | < 30 | – | – | – | – | – | – | – | – | – | –
ATKRETAATFLKKVAKEFGFQNNGFS [NPLOC4] | – | 0.25 | 0.77 | 0.73 | 0.41 | 0.23 | 2060 | > 4500 | > 100000 | > 4.67 | > 4000
NATHEEVVHLLRNAGDEVTITVEYLR [SNTG2] | – | 0.01 | 0.02 | 0.04 | 0.01 | 0.09 | > 3040 | > 6560 | > 4000 | > 4.07 | 22
RYRHGAPAEQLRHLADMLTTKWATLQ [PLEKHH1] | – | 0.28 | 0.81 | 1.44 | 0.56 | 0.41 | 1500 | 1400 | 650 | > 5.68 | 977
RYPILENPEILRKTADDFLNRIALTD [CCNH] | – | 0.04 | 0.24 | 0.06 | 0.02 | 0.02 | 7130 | 1920 | > 5720 | > 9.62 | > 4000
SSLSDGLPVHLANIADELTQKKKMFK [AGBL2] | – | 0.105 | 0.74 | 0.25 | 0.15 | 0.11 | > 100000 | 5870 | > 4000 | > 4.67 | > 5020
EVLAGPLAQRLSHIAEDVGRLVKKSR [ARHGAP4] | – | 0.1 | 0.94 | 0.4 | 0.4 | 0.28 | 6090 | 749 | 3060 | > 5.59 | > 2430
FTGNNTAVQELKRVSEQFTATFRRKA [TUBB4Q] | – | 0.19 | 0.92 | 0.93 | 0.8 | 0.41 | 1410 | 2490 | 2050 | > 4.67 | 1460

Continued by falling Kd [7], values first:

Kd [1] [nM] | SPOT signal as a fraction of Bim BH3's signal on the same receptor and array [2] | SPOT signal as a fraction of Bim BH3's signal on the same receptor and array [3] | SPOT signal as a fraction of Bim BH3's signal on the same receptor and array [4] | SPOT signal as a fraction of Bim BH3's signal on the same receptor and array [5] | SPOT signal as a fraction of Bim BH3's signal on the same receptor and array [6] | Kd [7] [nM] | Kd [8] [nM] | Kd [9] [nM] | Kd [10] [µM] | Kd [11] [nM] | Binder
– | 0.06 | 0.29 | 0.29 | 0.11 | 0.05 | 975 | 361 | 4550 | > 4.67 | > 6070 | KSRLVQQSKALKELADELQERCQRPA [TRIM58]
– | 0.01 | 0.02 | 0.11 | 0.02 | 0.02 | 562 | > 4000 | 2720 | > 4 | > 10000 | TDENKKVGLALKDLAKQYSDRLECCE [NUB1]
– | 0.38 | 0.2 | 0.34 | 0.49 | 0.44 | 124 | 2490 | 679 | 1.9 | 592 | FERVEQMCIQIKEVGDRVNYIKRSLQ [TRPM7]
– | 0.13 | 0.99 | 0.26 | 0.99 | 0.9 | 14 | 5 | 8 | 0.001 | 0.9 | EEIIHKLAMQLRHIGDNIDHRMVRED [PXT1]
